Measurements from US20200347127A1 (CRESCENDO BIOLOGICS, published 2020).
Residue numbers refer to the chain shown, from its start. “And” between values parts separate entries of the source, which are not always exact repeats. Equal values may be shown once.

T1: IL-17C (UniProt Q9P0M4 19-197, limits assumed)
T1 sequence (looked up): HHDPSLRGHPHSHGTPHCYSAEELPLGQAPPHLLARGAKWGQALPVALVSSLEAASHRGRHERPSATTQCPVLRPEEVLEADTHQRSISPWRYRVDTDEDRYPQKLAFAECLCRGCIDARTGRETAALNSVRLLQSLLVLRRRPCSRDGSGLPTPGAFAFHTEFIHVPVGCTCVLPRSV

T2: IL-17F (UniProt Q96PD4 31-163, limits assumed)
T2 sequence (looked up): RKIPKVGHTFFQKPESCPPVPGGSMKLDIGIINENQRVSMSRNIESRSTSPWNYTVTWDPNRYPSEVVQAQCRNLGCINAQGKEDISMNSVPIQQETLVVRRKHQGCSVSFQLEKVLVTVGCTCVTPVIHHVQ

T3: murine IL-17A (murine, UniProt Q62386 26-158, limits assumed)
T3 sequence (looked up): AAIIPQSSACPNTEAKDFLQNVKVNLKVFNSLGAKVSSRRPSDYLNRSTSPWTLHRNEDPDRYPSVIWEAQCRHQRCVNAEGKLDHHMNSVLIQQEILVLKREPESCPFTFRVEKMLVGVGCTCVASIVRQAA

B1: Clone 3.11 (VHH)
VHH: QVQLVQSGAEVKKPGASVKVSCKASGYNFDAYHINWVRQAPGQGLEWMGSIKPNSGATKYAQKFQGRVTITRDTSISTAYMELSRLRSDDTAVYYCASLDRDTWYPHSYFGWFDSWGQGTLVTVSS
notes: Human single VH domain
B2: Clone 3.9 (VHH)
VHH: B1 VHH with L99M, T103Y, W104Y, Y105D, P106T, H107S, S108G
notes: Human single VH domain
B3: Clone 3.13 (VHH)
VHH: B1 VHH with F110A
notes: Human single VH domain
B4: Clone 3.3 (VHH)
VHH: QVQLVQSGAEVKKPGASVKVSCAASGYTFTDYYLHWVRQAPGQGLEWMGWINPNTGTTKYAREFEGRVTMTRDTSISTAYMELSRLRSDDTAVYYCASMDRDYYDTSGYFGWFDSWGQGTLVTVSS
notes: Human single VH domain
B5: Clone 3.6 (VHH)
VHH: B4 VHH with M99L, Y103W, Y104R, D105S, T106P, S107N, G108D, F110Y
notes: Human single VH domain
B6: Clone 3.5 (VHH)
VHH: B4 VHH with M99L, Y103W, Y104R, D105S, T106P, S107N, G108D
notes: Human single VH domain
B7: Clone 1.8 (VHH)
VHH: QVQLVESGGGLVQPGGSLRLSCAASGFTFSSYGMYWVRQAPGKGLEWVAKIEQDGSEKYYVDSVKGRFTISRDNAKNSLFLQMNSLRAEDTAVYYCAKGEILPLYFDYWGQGTLVTVSS
notes: Human single VH domain
B8: Clone 1.15 (VHH)
VHH: B7 VHH with Q1E, G33S, K50E, E52R, K58Q, F80Y
notes: Human single VH domain
B9: VH 1.18.1 (clone 1.18 expressed from phagemid vector: with linker residues and His tag) (VHH)
VHH: B7 VHH with Q1E, G33S, K50E, E52K, E57V, K58Q, D62G, S63G, F80Y
notes: Human single VH domain
B10: Clone 1.13 (VHH)
VHH: B7 VHH with Q1E, K50S, F80Y
notes: Human single VH domain
B11: VH 1.20.1 (clone 1.20 expressed from phagemid vector: with linker residues and His tag) (VHH)
VHH: B7 VHH with Q1E, K58E, V61A, N77K, F80Y
notes: Human single VH domain
B12: VH 1.16.1 (clone 1.16 expressed from phagemid vector: with linker residues and His tag) (VHH)
VHH: B7 VHH with Q1E, G33S, K50E, E52K, K58Q, F80Y, S85G
notes: Human single VH domain
B13: Clone 1.22 (VHH)
VHH: B7 VHH with Q1E, Q13R, K58E, N77K, F80Y
notes: Human single VH domain
B14: Clone 1.12 (VHH)
VHH: B7 VHH with K58E, F80Y
notes: Human single VH domain
B15: Clone 1.11 (VHH)
VHH: B7 VHH with Q1E, G33Q, K50S, E52K, K58E
notes: Human single VH domain
B16: VH 1.17.1 (clone 1.17 expressed from phagemid vector: with linker residues and His tag) (VHH)
VHH: EVQLVESGGGLVQPGGSLRLSCAASGFTFSSYSMYWVRQAPGKGLEWVAEIKPTGSVQYYVSDVKGRFTISRDNAKNSLYLQMNSLRAEDTAVYYCAKGEILPLYFDYWGQGTLVTVSS
notes: Human single VH domain
B17: Clone 1.14 (VHH)
VHH: B7 VHH with Q1E, P14R, G33R, K50S, K58E, N77K
notes: Human single VH domain
B18: Clone 1.9 (VHH)
VHH: B7 VHH with K50E, E52K, F80Y
notes: Human single VH domain
B19: VH 1.19.1 (clone 1.19 expressed from phagemid vector: with linker residues and His tag) (VHH)
VHH: B7 VHH with Q1E, A24T, K50E, E52K, F80Y
notes: Human single VH domain
B20: VH 1.21.1 (clone 1.21 expressed from phagemid vector: with linker residues and His tag) (VHH)
VHH: B16 VHH with Q13L, P53Q, T54D, V57E, S62D, D63S
notes: Human single VH domain
B21: Family 4 (clone 4.1) (VHH)
VHH: QVQLVESGGGLVQPGGSLRLSCAASGFTFSSYWMNWVRQAPGKGLEWVATIKQDGSEKYYVDSVKGRFTISRDNATNSLFLQMNSLRAEDTAVYYCARGDTIFDGAFDIWGQGTMVTVSS
notes: Human single VH domain
B22: VH 1.3.1 (clone 1.3 expressed from phagemid vector: with linker residues and His tag) (VHH)
VHH: B16 VHH with P53Q, T54D, S62D, D63S
notes: Human single VH domain; also called Clone 1.3 prep 1; Clone 1.3 prep 2
B23: VH 1.3.3 (clone 1.3 with C terminal extension) (VHH)
VHH: B16 VHH with P53Q, T54D, S62D, D63S
notes: Human single VH domain
B24: VH 1.2.2 (+HIS) (VHH)
VHH: B16 VHH with P53Q, T54D
notes: also called 1.2.2 (clone 1.2 with C terminal extension and His tag)
B25: VH 1.2.3 (clone 1.2 with C terminal extension) (VHH)
VHH: B16 VHH with P53Q, T54D
notes: Human single VH domain

Target: T4, recombinant human IL-17A (human, UniProt Q16552 24-155)
T4 sequence (Q16552 24-155): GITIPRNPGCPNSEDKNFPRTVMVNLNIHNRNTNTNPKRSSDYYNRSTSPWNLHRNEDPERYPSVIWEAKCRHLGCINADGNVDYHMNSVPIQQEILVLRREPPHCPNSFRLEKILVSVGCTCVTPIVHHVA
Assay: cell-based or functional assay

Binder | Cell assay IC50 (nM), IL-17A-induced IL6 release from HT1080
B1 | 17 nM
B2 | 182 nM
B3 | 5 nM
B4 | 106 nM
B5 | 28 nM
B6 | 26 nM

Target: T4, recombinant human IL-17A
Assay: cell-based or functional assay
Remark: another data set of the same source

Binder | Cell assay IC50 (nM), IL-17A-induced IL6 release from HT1080
B7 | 1.2 nM
B8 | 2.5 nM
B9 | 1.04 nM
B10 | 1.2 nM
B11 | 2.03 nM
B12 | 1.4 nM
B13 | 3.25 nM
B14 | 1.4 nM
B15 | 1.5 nM
B16 | 1.91 nM
B17 | 2.9 nM
B18 | 2.4 nM
B19 | 1.2 nM
B20 | 2.05 nM

Target: T4, recombinant human IL-17A
Assay: competition ELISA, IL-17A binding to coated IL-17RA-Fc

Binder | IC50
B21 | 3.14 µM

Target: T4, recombinant human IL-17A
Assay: as above
Remark: another data set of the same source

Binder | IC50
B1 | 8 nM
B2 | 43 nM
B3 | 2 nM
B4 | 271 nM
B5 | 3 nM
B6 | 4 nM

Target: T4, recombinant human IL-17A
Assay: SPR (BIAcore T200), IL-17A coupled to CM5 chip, single-cycle kinetics

Binder | Kd | koff | kon
B21 | 493 nM | 0.00289 s⁻¹ | 5860 M⁻¹ s⁻¹

Target: T4, recombinant human IL-17A
Assay: as above
Remark: another data set of the same source

Binder | Kd | koff | kon
B1 | 0.44 nM | 0.000237 s⁻¹ | 538000 M⁻¹ s⁻¹
B2 | 21 nM | 0.00201 s⁻¹ | 96400 M⁻¹ s⁻¹
B3 | 0.197 nM | 0.000201 s⁻¹ | 1.02e+06 M⁻¹ s⁻¹
B4 | 29 nM | 0.00285 s⁻¹ | 99800 M⁻¹ s⁻¹
B5 | 0.838 nM | 0.00048 s⁻¹ | 573000 M⁻¹ s⁻¹
B6 | 2.2 nM | 0.000619 s⁻¹ | 281000 M⁻¹ s⁻¹

Target: T4, recombinant human IL-17A
Assay: as above
Remark: another data set of the same source

Binder | Kd | koff | kon
B7 | 0.616 nM | 0.000429 s⁻¹ | 697000 M⁻¹ s⁻¹
B8 | 0.232 nM | 0.000242 s⁻¹ | 1.04e+06 M⁻¹ s⁻¹
B9 | 0.366 nM | 0.000479 s⁻¹ | 1.31e+06 M⁻¹ s⁻¹
B10 | 0.84 nM | 0.000515 s⁻¹ | 614000 M⁻¹ s⁻¹
B11 | 0.244 nM | 0.000208 s⁻¹ | 851000 M⁻¹ s⁻¹
B22 | 0.627 nM and 0.23 nM | 0.000501 s⁻¹ and 0.000222 s⁻¹ | 799000 M⁻¹ s⁻¹ and 964000 M⁻¹ s⁻¹
B12 | 0.216 nM | 0.000213 s⁻¹ | 986000 M⁻¹ s⁻¹
B13 | 0.223 nM | 0.000126 s⁻¹ | 565000 M⁻¹ s⁻¹
B14 | 0.724 nM | 0.00053 s⁻¹ | 732000 M⁻¹ s⁻¹
B15 | 0.845 nM | 0.000521 s⁻¹ | 617000 M⁻¹ s⁻¹
B16 | 0.5 nM | 0.000462 s⁻¹ | 923000 M⁻¹ s⁻¹
B17 | 0.913 nM | 0.000688 s⁻¹ | 753000 M⁻¹ s⁻¹
B18 | 0.529 nM | 0.000464 s⁻¹ | 877000 M⁻¹ s⁻¹
B19 | 0.215 nM | 0.000153 s⁻¹ | 714000 M⁻¹ s⁻¹
B20 | 0.259 nM | 0.000205 s⁻¹ | 792000 M⁻¹ s⁻¹

Target: T5, recombinant IL-17RA-Fc (UniProt Q96F46 33-320)
T5 construct: Bought reagent; also called R & D systems cat #177-IR-100; receptor; not shown: Fc part of the bought fusion, not described
Assay: specificity ELISA on coated antigen, VH concentration not given

Binder | binding result
B8 | no binding
B11 | no binding
B22 | no binding
B12 | no binding
B19 | no binding

Target: T1, IL-17C
Assay: as above

Binder | binding result
B8 | no binding
B11 | no binding
B22 | no binding
B12 | no binding
B19 | no binding

Target: T2, IL-17F
Assay: as above

Binder | binding result
B8 | no binding
B11 | no binding
B22 | no binding
B12 | no binding
B19 | no binding

Target: T3, murine IL-17A
Assay: as above

Binder | binding result
B8 | binds
B11 | binds
B22 | binds
B19 | binds

Target: T4, recombinant human IL-17A
Assay: BIAcore single-cycle kinetics on immobilised IL-17A, 1:1 binding fit

Binder | Kd | kon
B23 | 0.68 nM | 750000 M⁻¹ s⁻¹

Target: T4, recombinant human IL-17A
Assay: as above
Remark: another data set of the same source

Binder | Kd | koff | kon
B24 | 0.55 nM | 0.000485 s⁻¹ | 874000 M⁻¹ s⁻¹
B25 | 0.62 nM | 0.000465 s⁻¹ | 748000 M⁻¹ s⁻¹
